Experimental data as given in patent publication US20230293638A1 (Eli Lilly, published 2023).
Changes are numbered by the printed parent chain. Numbered stars: 1 amine (or outer) side, 2 acyl side, 3 side chain; on linkers, the order of the positions; unused ones are H or OH. Square brackets hold non-standard residues; d marks the D form. Side chains are listed from the residue outwards. Ends that are not written are not given here. * marks the point of attachment. C20 diacid = O=C(O)CCCCCCCCCCCCCCCCCCC(=O)*; C18 diacid = O=C(O)CCCCCCCCCCCCCCCCC(=O)*; αMePhe(2-F) = C[C@](N)(Cc1ccccc1F)C(=O)O; γGlu = O=C(O)[C@H](CCC(=O)[*:2])N[*:1]; αMeL = CC(C)C[C@](C)(N)C(=O)O; αMeK = C[C@](N)(CCCCN)C(=O)O; AEEA = NCCOCCOCC(=O)O; Aib = CC(C)(N)C(=O)O

B1: Peptide 21 (peptide)
peptide: Y[Aib]EGTFTSDYSI[αMeL]LDEK([AEEA-AEEA-γGlu-C20 diacid])AQ[αMeK]AFIEYLLEGGPSSGAPPPS-NH2
modifications: N-terminus assumed
SMILES: CC[C@H](C)[C@H](NC(=O)[C@H](Cc1ccccc1)NC(=O)[C@H](C)NC(=O)[C@](C)(CCCCN)NC(=O)[C@H](CCC(N)=O)NC(=O)[C@H](C)NC(=O)[C@H](CCCCNC(=O)COCCOCCNC(=O)COCCOCCNC(=O)CC[C@H](NC(=O)CCCCCCCCCCCCCCCCCCC(=O)O)C(=O)O)NC(=O)[C@H](CCC(=O)O)NC(=O)[C@H](CC(=O)O)NC(=O)[C@H](CC(C)C)NC(=O)[C@](C)(CC(C)C)NC(=O)[C@@H](NC(=O)[C@H](CO)NC(=O)[C@H](Cc1ccc(O)cc1)NC(=O)[C@H](CC(=O)O)NC(=O)[C@H](CO)NC(=O)[C@@H](NC(=O)[C@H](Cc1ccccc1)NC(=O)[C@@H](NC(=O)CNC(=O)[C@H](CCC(=O)O)NC(=O)C(C)(C)NC(=O)[C@@H](N)Cc1ccc(O)cc1)[C@@H](C)O)[C@@H](C)O)[C@@H](C)CC)C(=O)N[C@@H](CCC(=O)O)C(=O)N[C@@H](Cc1ccc(O)cc1)C(=O)N[C@@H](CC(C)C)C(=O)N[C@@H](CC(C)C)C(=O)N[C@@H](CCC(=O)O)C(=O)NCC(=O)NCC(=O)N1CCC[C@H]1C(=O)N[C@@H](CO)C(=O)N[C@@H](CO)C(=O)NCC(=O)N[C@@H](C)C(=O)N1CCC[C@H]1C(=O)N1CCC[C@H]1C(=O)N1CCC[C@H]1C(=O)N[C@@H](CO)C(N)=O
B2: Peptide 172 (peptide)
peptide: YXEGTXTSDHSIXLDXKAQXTFIXYLIEGGPSSGAPPPS
modifications: Aib2; αMeF(2F)6; αMeL13; Dab16; K17((2-[2-(2-Amino-ethoxy)-ethoxy]-acetyl)2-(γGlu)-CO-(CH2)18-CO2H); Aib20; D-Glu24; C-terminal NH2
B3: Peptide 173 (peptide)
peptide: B2 peptide
modifications: Aib2; αMeF(2F)6; αMeL13; Dap16; K17((2-[2-(2-Amino-ethoxy)-ethoxy]-acetyl)2-(γGlu)-CO-(CH2)18-CO2H); Aib20; D-Glu24; C-terminal NH2
B4: Peptide 174 (peptide)
peptide: B2 peptide with X16E
modifications: Aib2; αMeF(2F)6; αMeL13; K17((2-[2-(2-Amino-ethoxy)-ethoxy]-acetyl)2-CO-(CH2)18-CO2H); Aib20; D-Glu24; C-terminal NH2
B5: Peptide 176 (peptide)
peptide: B2 peptide with X16E
modifications: Aib2; αMeF(2F)6; αMeL13; K17((2-[2-(2-Amino-ethoxy)-ethoxy]-acetyl)2-(εK)-CO-(CH2)16-CO2H); Aib20; D-Glu24; C-terminal NH2
B6: Peptide 178 (peptide)
peptide: B2 peptide with X16E, T21H
modifications: Aib2; αMeF(2F)6; αMeL13; K17((2-[2-(2-Amino-ethoxy)-ethoxy]-acetyl)2-(γGlu)-CO-(CH2)14-CO2H); Aib20; D-Glu24; C-terminal NH2
B7: Peptide 179 (peptide)
peptide: Y[Aib]EGT[αMePhe(2-F)]TSDHSI[αMeL]LDEK([AEEA-AEEA-γGlu-C18 diacid])AQ[Aib]HFI[dE]YLIEGGPSSG-NH2
modifications: N-terminus assumed
SMILES: CC[C@H](C)[C@H](NC(=O)[C@H](CC(C)C)NC(=O)[C@H](Cc1ccc(O)cc1)NC(=O)[C@@H](CCC(=O)O)NC(=O)[C@@H](NC(=O)[C@H](Cc1ccccc1)NC(=O)[C@H](Cc1c[nH]cn1)NC(=O)C(C)(C)NC(=O)[C@H](CCC(N)=O)NC(=O)[C@H](C)NC(=O)[C@H](CCCCNC(=O)COCCOCCNC(=O)COCCOCCNC(=O)CC[C@H](NC(=O)CCCCCCCCCCCCCCCCC(=O)O)C(=O)O)NC(=O)[C@H](CCC(=O)O)NC(=O)[C@H](CC(=O)O)NC(=O)[C@H](CC(C)C)NC(=O)[C@](C)(CC(C)C)NC(=O)[C@@H](NC(=O)[C@H](CO)NC(=O)[C@H](Cc1c[nH]cn1)NC(=O)[C@H](CC(=O)O)NC(=O)[C@H](CO)NC(=O)[C@@H](NC(=O)[C@](C)(Cc1ccccc1F)NC(=O)[C@@H](NC(=O)CNC(=O)[C@H](CCC(=O)O)NC(=O)C(C)(C)NC(=O)[C@@H](N)Cc1ccc(O)cc1)[C@@H](C)O)[C@@H](C)O)[C@@H](C)CC)[C@@H](C)CC)C(=O)N[C@@H](CCC(=O)O)C(=O)NCC(=O)NCC(=O)N1CCC[C@H]1C(=O)N[C@@H](CO)C(=O)N[C@@H](CO)C(=O)NCC(N)=O
B8: Peptide 180 (peptide)
peptide: Y[Aib]EGT[αMePhe(2-F)]TSDHSI[αMeL]LDEK([AEEA-AEEA-γGlu-C18 diacid])AQ[Aib]HFI[dE]YLIEGG-NH2
modifications: N-terminus assumed
SMILES: CC[C@H](C)[C@H](NC(=O)[C@H](CC(C)C)NC(=O)[C@H](Cc1ccc(O)cc1)NC(=O)[C@@H](CCC(=O)O)NC(=O)[C@@H](NC(=O)[C@H](Cc1ccccc1)NC(=O)[C@H](Cc1c[nH]cn1)NC(=O)C(C)(C)NC(=O)[C@H](CCC(N)=O)NC(=O)[C@H](C)NC(=O)[C@H](CCCCNC(=O)COCCOCCNC(=O)COCCOCCNC(=O)CC[C@H](NC(=O)CCCCCCCCCCCCCCCCC(=O)O)C(=O)O)NC(=O)[C@H](CCC(=O)O)NC(=O)[C@H](CC(=O)O)NC(=O)[C@H](CC(C)C)NC(=O)[C@](C)(CC(C)C)NC(=O)[C@@H](NC(=O)[C@H](CO)NC(=O)[C@H](Cc1c[nH]cn1)NC(=O)[C@H](CC(=O)O)NC(=O)[C@H](CO)NC(=O)[C@@H](NC(=O)[C@](C)(Cc1ccccc1F)NC(=O)[C@@H](NC(=O)CNC(=O)[C@H](CCC(=O)O)NC(=O)C(C)(C)NC(=O)[C@@H](N)Cc1ccc(O)cc1)[C@@H](C)O)[C@@H](C)O)[C@@H](C)CC)[C@@H](C)CC)C(=O)N[C@@H](CCC(=O)O)C(=O)NCC(=O)NCC(N)=O
B9: Peptide 181 (peptide)
peptide: B2 peptide with H10X, X16E, T21E
modifications: Aib2; αMeF(2F)6; 3Pal10; αMeL13; K17((2-[2-(2-Amino-ethoxy)-ethoxy]-acetyl)2-(γGlu)-CO-(CH2)18-CO2H); Aib20; D-Glu24; C-terminal NH2
B10: Peptide 182 (peptide)
peptide: B2 peptide with H10X, X16E, T21E
modifications: Aib2; αMeF(2F)6; 4Pal10; αMeL13; K17((2-[2-(2-Amino-ethoxy)-ethoxy]-acetyl)2-(γGlu)-CO-(CH2)18-CO2H); Aib20; D-Glu24; C-terminal NH2
B11: Peptide 183 (peptide)
peptide: B2 peptide with H10L, X16E, T21E
modifications: Aib2; αMeF(2F)6; αMeL13; K17((2-[2-(2-Amino-ethoxy)-ethoxy]-acetyl)2-(γGlu)-CO-(CH2)18-CO2H); Aib20; D-Glu24; C-terminal NH2
B12: Peptide 22 (peptide)
peptide: Y[Aib]EGTFTSDYSI[αMeL]LDEK([AEEA-AEEA-γGlu-C20 diacid])AQ[αMeK]AFIEYLLE[Aib]GPSSGAPPPS-NH2
modifications: N-terminus assumed
SMILES: CC[C@H](C)[C@H](NC(=O)[C@H](Cc1ccccc1)NC(=O)[C@H](C)NC(=O)[C@](C)(CCCCN)NC(=O)[C@H](CCC(N)=O)NC(=O)[C@H](C)NC(=O)[C@H](CCCCNC(=O)COCCOCCNC(=O)COCCOCCNC(=O)CC[C@H](NC(=O)CCCCCCCCCCCCCCCCCCC(=O)O)C(=O)O)NC(=O)[C@H](CCC(=O)O)NC(=O)[C@H](CC(=O)O)NC(=O)[C@H](CC(C)C)NC(=O)[C@](C)(CC(C)C)NC(=O)[C@@H](NC(=O)[C@H](CO)NC(=O)[C@H](Cc1ccc(O)cc1)NC(=O)[C@H](CC(=O)O)NC(=O)[C@H](CO)NC(=O)[C@@H](NC(=O)[C@H](Cc1ccccc1)NC(=O)[C@@H](NC(=O)CNC(=O)[C@H](CCC(=O)O)NC(=O)C(C)(C)NC(=O)[C@@H](N)Cc1ccc(O)cc1)[C@@H](C)O)[C@@H](C)O)[C@@H](C)CC)C(=O)N[C@@H](CCC(=O)O)C(=O)N[C@@H](Cc1ccc(O)cc1)C(=O)N[C@@H](CC(C)C)C(=O)N[C@@H](CC(C)C)C(=O)N[C@@H](CCC(=O)O)C(=O)NC(C)(C)C(=O)NCC(=O)N1CCC[C@H]1C(=O)N[C@@H](CO)C(=O)N[C@@H](CO)C(=O)NCC(=O)N[C@@H](C)C(=O)N1CCC[C@H]1C(=O)N1CCC[C@H]1C(=O)N1CCC[C@H]1C(=O)N[C@@H](CO)C(N)=O
B13: Peptide 187 (peptide)
peptide: B2 peptide with H10Q, X16E, T21E
modifications: Aib2; αMeF(2F)6; αMeL13; K17((2-[2-(2-Amino-ethoxy)-ethoxy]-acetyl)2-(γGlu)-CO-(CH2)18-CO2H); Aib20; D-Glu24; C-terminal NH2
B14: Peptide 189 (peptide)
peptide: B2 peptide with H10X, X16E, T21E
modifications: Aib2; αMeF(2F)6; 4Pal10; αMeL13; K17((2-[2-(2-Amino-ethoxy)-ethoxy]-acetyl)2-(γGlu)-CO-(CH2)18-CO2H); Aib20; Aib24; C-terminal NH2

target: human GLP-1 receptor (human, UniProt P43220 24-463); experiment: cell-based or functional assay

Binder	hGLPIR cAMP EC50 ratio
B1	0.402
B2	0.038
B3	0.0373
B4	0.0968
B5	0.0427
B6	0.00349
B7	0.0169
B8	0.0212
B9	0.718
B10	0.873
B11	0.843
B12	0.29
B13	0.702
B14	0.668
